# Article PMC8812556 (Proceedings of the National Academy of Sciences of the …, 2022)
# Legend:
# [1] = target: FITC-labeled BiP-NBD (D27C variant) (UniProt P20029); test: fluorescence polarisation
# [2] = target: BiP double-mutant G518C and Y636C labelled with AlexaFluor 555 and AlexaFluor 647 (UniProt P20029); test: other fluorescence titration
# cross-linking = target: the molecule itself; test: cross-linking
# Sequence of Wild-type mouse Grp94 (72 to 765) (P08113 72-765): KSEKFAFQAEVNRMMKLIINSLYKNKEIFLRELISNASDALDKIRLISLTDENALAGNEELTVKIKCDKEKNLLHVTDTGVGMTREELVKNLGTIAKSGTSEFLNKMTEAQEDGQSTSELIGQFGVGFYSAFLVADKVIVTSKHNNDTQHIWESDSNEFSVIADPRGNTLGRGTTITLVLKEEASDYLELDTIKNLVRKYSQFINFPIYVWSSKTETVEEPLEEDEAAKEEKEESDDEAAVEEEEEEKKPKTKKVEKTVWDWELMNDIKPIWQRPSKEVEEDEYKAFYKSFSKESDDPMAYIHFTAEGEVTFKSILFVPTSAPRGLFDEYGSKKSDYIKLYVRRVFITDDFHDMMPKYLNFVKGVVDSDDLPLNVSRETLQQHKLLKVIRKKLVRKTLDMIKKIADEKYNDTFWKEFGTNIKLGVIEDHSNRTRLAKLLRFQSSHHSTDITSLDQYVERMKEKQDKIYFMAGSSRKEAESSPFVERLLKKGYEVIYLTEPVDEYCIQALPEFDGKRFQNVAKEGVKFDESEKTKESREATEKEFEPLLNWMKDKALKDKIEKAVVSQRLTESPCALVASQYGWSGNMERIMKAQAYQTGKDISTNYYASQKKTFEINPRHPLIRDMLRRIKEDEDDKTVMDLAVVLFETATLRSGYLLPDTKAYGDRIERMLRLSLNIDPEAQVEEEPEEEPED
molecule,measurement,setting,value
M86C cross-linked Grp94 (from UniProt P08113 72-765) (natural protein),fold affinity enhancement versus wild-type Grp94,[1],50 fold
Mouse E-peptide containing an N-terminal six-histidine tag and S95C mutation (domain or fragment),Kd,[2],130 nM
Wild-type mouse Grp94 (72 to 765) (from UniProt P08113 72-765) (natural protein),Kd,[1],950 nM
"Grp94 M86C (natural protein, mouse, UniProt P08113 72-765, looked up) KSEKFAFQAEVNRMCKLIINSLYKNKEIFLRELISNASDALDKIRLISLTDENALAGNEELTVKIKCDKEKNLLHVTDTGVGMTREELVKNLGTIAKSGTSEFLNKMTEAQEDGQSTSELIGQFGVGFYSAFLVADKVIVTSKHNNDTQHIWESDSNEFSVIADPRGNTLGRGTTITLVLKEEASDYLELDTIKNLVRKYSQFINFPIYVWSSKTETVEEPLEEDEAAKEEKEESDDEAAVEEEEEEKKPKTKKVEKTVWDWELMNDIKPIWQRPSKEVEEDEYKAFYKSFSKESDDPMAYIHFTAEGEVTFKSILFVPTSAPRGLFDEYGSKKSDYIKLYVRRVFITDDFHDMMPKYLNFVKGVVDSDDLPLNVSRETLQQHKLLKVIRKKLVRKTLDMIKKIADEKYNDTFWKEFGTNIKLGVIEDHSNRTRLAKLLRFQSSHHSTDITSLDQYVERMKEKQDKIYFMAGSSRKEAESSPFVERLLKKGYEVIYLTEPVDEYCIQALPEFDGKRFQNVAKEGVKFDESEKTKESREATEKEFEPLLNWMKDKALKDKIEKAVVSQRLTESPCALVASQYGWSGNMERIMKAQAYQTGKDISTNYYASQKKTFEINPRHPLIRDMLRRIKEDEDDKTVMDLAVVLFETATLRSGYLLPDTKAYGDRIERMLRLSLNIDPEAQVEEEPEEEPED",binding result,cross-linking,binds
